Measured values published in the Immune Epitope Database (IEDB).
Each block holds one sequence with its values, some of them ahead of it.

What was measured:
[1] = target: HLA-B*57:01; experiment: IEDB peptide-MHC binding, purified MHC/competitive/fluorescence; filed as Kd, often an IC50 or EC50 that approximates it; ≥ and ≤ were set here for values at or beyond the usual limits of such assays; settings: source organism: Homo sapiens
[2] = target: HLA-B*27:03; experiment: as above; settings: source organism: Homo sapiens
[3] = target: HLA-A*69:01; experiment: as above; settings: source organism: Homo sapiens
[4] = target: HLA-A*26:01; experiment: as above; settings: source organism: Homo sapiens
[5] = target: HLA-B*46:01; experiment: as above; settings: source organism: Homo sapiens
[6] = target: HLA-B*15:01; experiment: as above; settings: source organism: Homo sapiens
[7] = target: HLA-B*51:01; experiment: as above; settings: source organism: Homo sapiens
[8] = target: HLA-B*39:01; experiment: IEDB peptide-MHC binding, purified MHC/direct/fluorescence; filed as Kd, often an IC50 or EC50 that approximates it; ≥ and ≤ were set here for values at or beyond the usual limits of such assays
[9] = target: HLA-B*15:17; experiment: IEDB peptide-MHC binding, purified MHC/competitive/fluorescence; filed as Kd, often an IC50 or EC50 that approximates it; ≥ and ≤ were set here for values at or beyond the usual limits of such assays; settings: source organism: Homo sapiens
[10] = target: HLA-B*18:01; experiment: as above; settings: source organism: Homo sapiens
[11] = target: HLA-B*39:01; experiment: as above; settings: source organism: Homo sapiens
[12] = target: HLA-A*11:01; experiment: IEDB peptide-MHC binding, purified MHC/competitive/fluorescence; ≥ and ≤ were set here for values at or beyond the usual limits of such assays
[13] = target: HLA-A*03:01; experiment: as above
[14] = target: HLA-B*58:01; experiment: IEDB peptide-MHC binding, purified MHC/direct/fluorescence; filed as Kd, often an IC50 or EC50 that approximates it; ≥ and ≤ were set here for values at or beyond the usual limits of such assays
[15] = target: HLA-B*57:01; experiment: as above
[16] = target: HLA-B*15:17; experiment: as above
[17] = target: HLA-A*24:02; experiment: IEDB peptide-MHC binding, purified MHC/competitive/fluorescence; ≥ and ≤ were set here for values at or beyond the usual limits of such assays
[18] = target: HLA-B*27:05; experiment: IEDB peptide-MHC binding, purified MHC/direct/fluorescence; filed as Kd, often an IC50 or EC50 that approximates it; ≥ and ≤ were set here for values at or beyond the usual limits of such assays; settings: source organism: Escherichia coli O157:H7
[19] = target: HLA-A*11:01; experiment: as above; settings: source organism: Escherichia coli O157:H7
[20] = target: HLA-B*40:01; experiment: as above; settings: source organism: Escherichia coli O157:H7
[21] = target: HLA-A*01:01; experiment: as above; settings: source organism: Escherichia coli O157:H7
[22] = target: HLA-B*08:01; experiment: as above; settings: source organism: Escherichia coli O157:H7
[23] = target: HLA-A*31:01; experiment: as above; settings: source organism: Escherichia coli O157:H7
[24] = target: HLA-A*69:01; experiment: as above
[25] = target: HLA-A*26:01; experiment: as above; settings: source organism: Escherichia coli O157:H7
[26] = target: HLA-B*44:02; experiment: as above; settings: source organism: Escherichia coli O157:H7
[27] = target: HLA-B*07:02; experiment: as above; settings: source organism: Escherichia coli O157:H7
[28] = target: HLA-A*03:01; experiment: as above; settings: source organism: Escherichia coli O157:H7
[29] = target: HLA-A*02:01; experiment: as above
[30] = target: HLA-B*15:01; experiment: as above; settings: source organism: Escherichia coli O157:H7
[31] = target: HLA-A*02:01; experiment: IEDB peptide-MHC binding, purified MHC/competitive/fluorescence; ≥ and ≤ were set here for values at or beyond the usual limits of such assays; settings: source organism: Zaire ebolavirus
[32] = target: HLA-A*23:01; experiment: IEDB peptide-MHC binding, purified MHC/competitive/radioactivity; filed as Kd, often an IC50 or EC50 that approximates it; ≥ and ≤ were set here for values at or beyond the usual limits of such assays; settings: source organism: Dengue virus 1 Brazil/97-11/1997
[33] = target: HLA-B*15:01; experiment: as above
[34] = target: HLA-A*02:11; experiment: IEDB peptide-MHC binding, purified MHC/direct/fluorescence; filed as Kd, often an IC50 or EC50 that approximates it; ≥ and ≤ were set here for values at or beyond the usual limits of such assays; settings: source organism: Orthohantavirus sangassouense
[35] = target: HLA-A*02:12; experiment: as above; settings: source organism: Orthohantavirus sangassouense
[36] = target: HLA-A*02:19; experiment: as above; settings: source organism: Orthohantavirus sangassouense
[37] = target: HLA-A*03:01; experiment: IEDB peptide-MHC binding, purified MHC/competitive/fluorescence; filed as Kd, often an IC50 or EC50 that approximates it; ≥ and ≤ were set here for values at or beyond the usual limits of such assays
[38] = target: HLA-B*07:02; experiment: IEDB peptide-MHC binding, purified MHC/competitive/radioactivity; filed as Kd, often an IC50 or EC50 that approximates it; ≥ and ≤ were set here for values at or beyond the usual limits of such assays; settings: source organism: Dengue virus 2 Jamaica/1409/1983
[39] = target: HLA-A*24:02; experiment: as above
[40] = target: HLA-B*53:01; experiment: as above
[41] = target: HLA-B*57:01; experiment: as above; settings: source organism: Dengue virus 2 Jamaica/1409/1983
[42] = source organism: Sudan ebolavirus
[43] = source organism: Burkholderia mallei
[44] = source organism: Marburg virus - Musoke, Kenya, 1980
[45] = source organism: Zaire ebolavirus
[46] = source organism: Escherichia coli O157:H7
[47] = source organism: Vaccinia virus Copenhagen
[48] = source organism: Dengue virus 1 Brazil/97-11/1997
[49] = source organism: Entamoeba histolytica HM-1:IMSS
[50] = source organism: Vibrio parahaemolyticus
[51] = source organism: Dengue virus 2 Jamaica/1409/1983

Kd [1]: ≥ 20 µM
Kd [2]: ≥ 20 µM
Kd [3]: ≥ 20 µM
Kd [4]: ≥ 20 µM
Kd [5]: ≥ 20 µM
Kd [6]: ≥ 20 µM
Kd [7]: ≥ 20 µM
Sequence: WMFRIRIIL

Kd ([8]; source organism: Escherichia coli O157:H7 str. EC869): 0.01 µM
Sequence: FRAICTNGL

Kd [1]: ≥ 20 µM
Kd [9]: ≥ 20 µM
Kd [10]: ≥ 20 µM
Kd [2]: ≥ 20 µM
Kd [3]: ≥ 20 µM
Kd [4]: ≥ 20 µM
Kd [5]: ≥ 20 µM
Kd [11]: ≥ 20 µM
Kd [6]: ≥ 20 µM
Kd [7]: ≥ 20 µM
Sequence: LMQCWQLLA

Sequence: STTLFKIDN
IC50 [12, 42]: ≥ 146 µM

Sequence: KIDNNTFVR
IC50 [12, 42]: 2.74 µM
IC50 [13, 42]: 31.9 µM

Sequence: RAMDTYHRW
Kd [14, 43]: 0.0105 µM
Kd [15, 43]: 0.0488 µM
Kd [16, 43]: 0.0021 µM

Sequence: YGVKNLFDW
Kd [14, 44]: ≥ 5 µM
Kd [15, 44]: 0.0383 µM
Kd [16, 44]: 0.155 µM

Sequence: GTNTTTEDH
IC50 [12, 45]: ≥ 76.9 µM

Sequence: GIYTEGLMH
IC50 [12, 42]: 3.55 µM
IC50 [13, 42]: 15.4 µM

Sequence: SGYYSTTIR
IC50 [12, 45]: 0.903 µM
IC50 [17, 45]: ≥ 346 µM
IC50 [13, 45]: 1.67 µM

Kd [18]: ≥ 20 µM
Kd [14, 46]: 0.0475 µM
Kd [15, 46]: 0.215 µM
Kd [16, 46]: 0.0278 µM
Kd [19]: ≥ 20 µM
Kd [20]: ≥ 20 µM
Kd [21]: ≥ 20 µM
Kd [22]: ≥ 20 µM
Kd [23]: 0.333 µM
Kd [24, 46]: ≥ 20 µM
Kd [25]: ≥ 20 µM
Kd [26]: ≥ 20 µM
Kd [27]: ≥ 20 µM
Kd [28]: ≥ 20 µM
Kd [29, 46]: ≥ 20 µM
Kd [30]: ≥ 20 µM
Sequence: KTTIKFHPW

Sequence: GEESASSGK
IC50 [12, 45]: ≥ 314 µM

Sequence: LITGGRRTR
IC50 [12, 45]: ≥ 93.3 µM
IC50 [13, 45]: ≥ 112 µM
IC50 [31]: ≥ 111 µM

Sequence: FYRSGTETK
IC50 [12, 47]: 44.1 µM
IC50 [17, 47]: ≥ 99.2 µM
IC50 [13, 47]: 64.2 µM

Sequence: RVIGYILFF
Kd [14, 44]: 2.04 µM
Kd [16, 44]: 0.129 µM

Sequence: RVIQLSRKTF
Kd [32]: 3.29 µM
Kd [33, 48]: 0.0452 µM

Sequence: KSMRDQRKG
IC50 ([12]; source organism: Variola virus): 47.3 µM
IC50 ([13]; source organism: Variola virus): ≥ 119 µM

Sequence: ISTLPTEQF
Kd [14, 49]: 0.0022 µM
Kd [15, 49]: 0.238 µM
Kd [16, 49]: 0.0065 µM

Sequence: FHFFVHTLL
Kd ([8]; source organism: Camelpox virus M-96): 0.052 µM

Kd ([29]; source organism: Homo sapiens): 0.0002 µM
Kd [1]: ≥ 20 µM
Kd [9]: ≥ 20 µM
Kd [10]: ≥ 20 µM
Kd [2]: ≥ 20 µM
Kd [4]: ≥ 20 µM
Kd [5]: ≥ 20 µM
Kd [11]: ≥ 20 µM
Kd [7]: ≥ 20 µM
Sequence: LLAMTFWPA

Sequence: GLYPAQIKA
Kd [34]: 0.033 µM
Kd [35]: 0.126 µM
Kd ([24]; source organism: Amur virus): ≥ 20 µM
Kd ([29]; source organism: Amur virus): 0.0035 µM
Kd [36]: ≥ 20 µM

Sequence: ATISTSPQS
IC50 [12, 45]: 17.5 µM
IC50 [31]: ≥ 108 µM

Sequence: YSLGQGPVW
Kd [14, 50]: 0.0026 µM
Kd [16, 50]: ≤ 0.001 µM

Sequence: LLLKERGLH
Kd ([37]; source organism: Vibrio parahaemolyticus AQ3810): ≥ 20 µM

Kd ([37]; source organism: Homo sapiens): 0.455 µM
Sequence: LSSSVPSQK

Sequence: RVMVMVGATM
Kd [38]: 0.0615 µM
Kd [33, 51]: 0.00214 µM

Sequence: LMLLPTALAF
Kd [39, 48]: 4.45 µM
Kd [40, 48]: 15.6 µM
Kd [32]: 0.0729 µM
Kd [33, 48]: 0.00082 µM

Sequence: FHDSNVKNL
Kd ([8]; source organism: Influenza A virus (A/chicken/Nakorn-Patom/Thailand/CU-K3/2004(H5N1))): 0.168 µM

Sequence: ITAAAWYLW
Kd ([16]; source organism: dengue virus type 2): 0.0067 µM
Kd [41]: 0.000477 µM
Kd [39, 51]: 0.0215 µM
Kd [40, 51]: 0.174 µM
